# Measured values reported in US20160362487A1 (Regeneron, published 2016).
# Positions count from the first letter of the chain named. In names and notes the source's numbering stands.
# T1: human IL-33 (R&D Systems, #3625-IL-010/CF) (human, UniProt O95760 112-270)
# T1 construct: Commercial recombinant protein; also called hIL-33; interleukin-33
# T1 sequence (looked up): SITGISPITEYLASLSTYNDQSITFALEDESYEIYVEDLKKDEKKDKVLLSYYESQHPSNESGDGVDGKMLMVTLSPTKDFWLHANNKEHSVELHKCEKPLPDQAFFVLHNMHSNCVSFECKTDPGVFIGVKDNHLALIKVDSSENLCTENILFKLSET
# T2: cynomolgus monkey IL-33 expressed with a C-terminal hexahistidine tag (cynomolgus monkey)
# T2 construct: also called MfIL-33-6His; Mf-IL-33-6His
# T2 chain: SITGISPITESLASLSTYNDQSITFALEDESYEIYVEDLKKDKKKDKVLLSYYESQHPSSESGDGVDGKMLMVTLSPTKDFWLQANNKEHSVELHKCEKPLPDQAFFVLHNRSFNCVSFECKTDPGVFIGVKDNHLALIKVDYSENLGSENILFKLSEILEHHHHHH
# B1: H4H9629P (antibody, human IgG4, V domains shown)
# VH: EVQLVESGGGLVQPGGSLRLSCAASGFTFRSFAMSWVRQAPGKGLELVSDLRTSGGSTYYADSVKGRLTISRDNSKNTLYLQMNSLRAEDTAVYYCAKSHYSTSWFGGFDYWGQGTLVTVSS
# VL: DIQMTQSPSSVSASVGDRVTITCRASQGFSSWLAWYQQKPGKAPKLLIYAASSLQSGVPSRFSGSGSGTDFTLTITNLQPEDFATYYCQQANSFPLTFGGGTKVEIK
# notes: Human IgG4 Fc (H4H)
# B2: H4H9666P (antibody, human IgG4, V domains shown)
# VH: QVQLVQSGAEVKKPGASVKVSCKASGYTFTSYGISWVRQAPGQGLEWMGWIRAYNGYTNYAQKFQGRVTMTTDTSTNTAYMELRTLNSDDTAVYYCARDRYSGSFHGNFDYWGQGTLVTVSS
# VL: B1 VL with F29I, S30F, L46V, S53N, Q55E, T76S, N77S, F94L
# notes: Human IgG4 Fc (H4H)
# B3: H4H9663P (antibody, human IgG4, V domains shown)
# VH: QVQLVQSGAEVKKPGASVKVSCKASGYTFTGHYMYWMRQAPGQGLEWMGWINPNSGGTNYAQKFQDRVTMTRDTSISTAYMELSRLRSDDTAVYYCARGRYGSSWYGGFEYWGQGTLVTVSS
# VL: B1 VL with F29I, S30T, K45N, S52A, T76S, N77S, A84T, N92Y, F94L
# notes: Human IgG4 Fc (H4H)
# B4: H4H9667P (antibody, human IgG4, V domains shown)
# VH: EVQLVESGGGLVQPGGSLRLSCAASGFTFSTYSMHWVRQAPGKGLEYVSTINNNGDTTYYADSVKGRFTISRDNSKNTLYLQLGSLRPEDMAVYYCARQTYTSSWYGGFDSWGQGTLVTVSS
# VL: B1 VL with F29I, S30T, S53N, N77S, F94L, L96F, G100P, E105D
# notes: Human IgG4 Fc (H4H)
# B5: H1M9559N (antibody, mouse IgG1, V domains shown)
# VH: QVQLVESGGGVVQPGRSLRLSCAASGFTFSSYGMHWVRQAPGKGLEWVAVIWYDGRNKYYTDSVKGRFTISRDNSKNTLYLQMDSLRAEDTAVYYCARERYISSYYGGFDPWGQGALVTVSS
# VL: B1 VL with F29I, L46V, T76S, N77S, L96F, G100P, V104L, E105D
# notes: Human variable domains, mouse IgG1 Fc (H1M)
# B6: H4H9672P (antibody, human IgG4, V domains shown)
# VH: EVQLVESGGGLVQPGGSLRLSCAASGFTLRSYVMYWVRQGPGKGLEGVSGISGSSGGTYYTDSVKGRFTISRDNSKNTLFLQMNSLRAEDTAVYFCARSVYSTTWYGGFQHWGQGTLVTVSS
# VL: B1 VL with A13V, G28V, F29I, Q38L, T76S, N77G, T85V, A91T
# notes: Human IgG4 Fc (H4H)
# B7: H4H9633P (antibody, human IgG4, V domains shown)
# VH: EVQLVESGGGLVQPGGSLRLSCAASGFTFSSYVMSWVRQAPGKGLEWVSSISGNGGSTNYADSVKGRFTISRDNSKNTLFLEMNSLRAEDTAVYYCAKSLGTTTTFLGFDYWGQGTLVTVSS
# VL: B1 VL with F29I, D70Y, T76S, N77S
# notes: Human IgG4 Fc (H4H)
# B8: H4H9676P (antibody, human IgG4, V domains shown)
# VH: EVQLVESGGGLVQPGGSLRLSCSASGFTFSSYAMNWVRQAPGKGLEWVTAISGSGGGTYYADSVKGRFTISRDNSKNSLFLQLNSLRAEDTAVYYCAKQTYTSSWYGGFDIWGQGTMVTVSS
# VL: B1 VL with K39I, S53R, S63R, T76S, N77S
# notes: Human IgG4 Fc (H4H)
# B9: H4H9664P (antibody, human IgG4, V domains shown)
# VH: QVQLVESGGGVVQPGRSLRLSCAASGFTFSSYGLHWVRQSPGKGLEWVALISYDGSNKYYADSVKGRFTISRDNSKNTLYLQMNSLRPEDTAGYFCAKSLYTTSWYGGFDYWGQGTLVTVSS
# VL: B1 VL with F29I, S30R, K45N, T76S, N77S, L96P, G100P, E105D
# notes: Human IgG4 Fc (H4H)
# B10: H4H9660P (antibody, human IgG4, V domains shown)
# VH: EVQLVESGGGLVQPGGSLRLSCAASGITLSSYGMSWVRQAPGKGLEWVASIFGSGGGPYYADSVKGRFTMSRDNSKNTLYLQMNSLRAEDTAVYYCAKDRYSGSYYGGFDYWGRGTLVTVSS
# VL: B1 VL with F29I, S30T, K45T, S56T, T76S, N77S, D82H, L96P
# notes: Human IgG4 Fc (H4H)
# B11: H4H9670P (antibody, V domains shown)
# VH: EVQLVESGGGLVQPGGSLRLSCAASGFTLSSYAMSWVRQAPGKGLEWVSAISGSGGSTYYADSVKGRFTISRDNSKNSLYLQLNSLRAEDTAVYYCAKTLYTTSWYGGFQHWGQGTLVTVSS
# VL: DIQMTQSPSSVSASIGDRVTITCRASQGISSWLAWYQQKPGKVPKLLIYAASSLQSGFPSRFSGSGSGTDFTLTISSLQPEDFATYYCQQTHSFPWTVGQGTKVEIK
# notes: Human IgG4 Fc (H4H)
# B12: H1M9565N (antibody, mouse IgG1, V domains shown)
# VH: QVTLKESGPVLVKPTESLTLTCSVSGFSLSNVRMGVSWIRQSPGKALEWLAHIFSNDEKSYTTSLKTRLTISKDTSRSQVVLTMTDMDPGDTATYYCARIRNLAFNYWGQGTLVTVSS
# VL: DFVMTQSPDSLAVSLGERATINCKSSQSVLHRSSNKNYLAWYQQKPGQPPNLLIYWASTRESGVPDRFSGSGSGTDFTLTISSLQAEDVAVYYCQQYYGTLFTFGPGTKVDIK
# notes: as for B5
# B13: H1M9568N (antibody, mouse IgG1, V domains shown)
# VH: QVLLVQSGAEVKKPGATVKVSCKASGSTFTGYYMHWVRQAPGQGLEWMGWINPNNGGTNYAQKFQGRVTMTRDTSISTAYMELSRLRSDDTAVYYCARELRYNWKSWGQGTLVTVSS
# VL: EIVLTQSPGTLSLSPGERVTLSCRASQSVGRPYLAWYQQIPGQAPRLLIYGASSRATDIPDRFSGNGSGTDFTLTISRLEPEDFAVYYCQQYDNSPYTFGQGTRLEIK
# notes: as for B5
# B14: H4H9640P (antibody, human IgG4, V domains shown)
# VH: QVQLQESGPGLVKPSETLSLTCTVSGGSISSYYWSWIRQPPGKGLELIGYIYYSGSTNYNPSLKSRVTISVDTSKNHFSLKLSSVTAADTAVYYCARSQYTSSWYGSFDIWGQGTMVTVSS
# VL: DIQMTQSPSSVSASVGDRVTITCRASQGISTWLAWFQQKPGKAPKLLIYAASTLQGGVPSRFSGSGSGPEFTLTISSLQPEDFATYYCQQANSFPWTFGQGTKVEIK
# notes: Human IgG4 Fc (H4H)
# How the values were obtained:
# [1] = target: T1, human IL-33 (R&D Systems, …); test: SPR 37C, pH6.0 chase, mAb captured
# Method: (§1) Equilibrium dissociation constants (KD values) for IL-33 binding to purified anti-IL-33 monoclonal antibodies were determined using a real-time surface plasmon resonance biosensor using a Biacore 4000 instrument. The Biacore sensor surface was first derivatized by amine coupling with either a polyclonal rabbit anti-mouse antibody (GE, # BR-1008-38) or with a monoclonal mouse anti-human Fc antibody (GE, # BR-1008-39) to capture anti-IL-33 monoclonal antibodies expressed with mouse or with human IgG4 constant regions, respectively. All Biacore binding studies were performed in 0.01M ADA pH 7.4, 0.15M NaCl, 3 mM EDTA, and 0.05% v/v Surfactant Tween-20 (ABS-ET running buffer). […] Association of either hIL-33 or MfIL-33-6His to the captured monoclonal antibody was monitored for 4 minutes and their dissociation in ABS-ET running buffer was monitored for 10 minutes. The effect of reduced pH on the binding of each anti-IL-33 antibody to either hIL-33 or MfIL-33-6His was studied using an in-line pH chase assay format in 0.01M ADA pH 6.0, 0.15M NaCl, 3 mM EDTA, and 0.05% v/v Surfactant Tween-20 (ABS-ET pH6 buffer). To achieve this, association of either hIL-33 or MfIL-33-6His to the captured monoclonal antibody was monitored for 4 minutes in ABS-ET running buffer. Following a 30 second dissociation of either hIL-33 or MfIL-33-6His in ABS-ET running buffer, ABS-ET pH6 buffer was injected for 3 minutes, and the analyte dissociation under the low-pH conditions was measured. All the binding kinetic experiments were performed at both 25° C. and 37° C. Kinetic association (kₐ) and dissociation (kd) constants were determined by fitting the real-time sensorgrams to a 1:1 binding model using Scrubber 2.0c curve fitting software. Binding dissociation equilibrium constants (KD) and dissociative half-lives (t½) were calculated from the kinetic rate constants as: […]
# [2] = target: T1, human IL-33 (R&D Systems, …); test: cell-based or functional assay
# [3] = target: T2, cynomolgus monkey IL-33 expressed with …; test: SPR 37C, pH6.0 chase, mAb captured
# Method: as §1
Binder,koff [1],t½ [1],t½ Ratio (pH 7.4/pH 6.0) [1],"IC50, blocking of IFN-γ release from human PBMC induced by 260 pM hIL-33, donor #603486 [2]","IC50, blocking of IFN-γ release from human PBMC induced by 260 pM hIL-33, donor #603487 [2]",koff [3],t½ [3],t½ Ratio (pH 7.4/pH 6.0) [3]
B1,0.00582 s⁻¹,2 min,9,8.15e-10 M,5.21e-09 M,–,–,–
B2,0.0068 s⁻¹,2 min,8.8,–,–,–,–,–
B3,0.00462 s⁻¹,3 min,3.7,1.24e-08 M,2.2e-08 M,0.00354 s⁻¹,3.3 min,1
B4,0.00244 s⁻¹,5 min,4,8.07e-09 M,1.88e-08 M,0.00268 s⁻¹,4 min,0.8
B5,0.000992 s⁻¹,12 min,1,–,–,0.00307 s⁻¹,4 min,0.9
B6,0.00541 s⁻¹,2 min,4.7,–,–,–,–,–
B7,0.0024 s⁻¹,5 min,3.5,–,–,–,–,–
B8,0.00524 s⁻¹,2 min,4.1,–,–,–,–,–
B9,0.00279 s⁻¹,4 min,3.9,3.98e-09 M,6.08e-09 M,0.00193 s⁻¹,6 min,0.3
B10,0.00323 s⁻¹,4 min,6.8,6.67e-10 M,2.91e-09 M,0.00463 s⁻¹,2.5 min,1
B11,0.00383 s⁻¹,3 min,4.9,–,–,0.00165 s⁻¹,7 min,0.3
B12,–,–,–,–,–,0.000228 s⁻¹,51 min,1.1
B13,0.0011 s⁻¹,10 min,1.1,–,–,0.00224 s⁻¹,5 min,1.3
B14,0.00265 s⁻¹,4 min,4.6,4.42e-09 M,1.22e-08 M,0.00226 s⁻¹,5 min,0.5
